According to the supplement of paper PMC10567573:

B1: FAM116A (parent)
chain: TVHEVDIFRCFCPVFLHSQMLWEL
B2: MYBL2 (parent)
chain: FPNRTDQQCQYRWLRVLNPDLVKG

Variants of: B1
Assay: protein stability index of a GFP-peptide fusion (GPS, HEK-293T) (PSI 1-6); higher = more stable
Settings: c terminus: a fixed tail appended
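Note: lentivirally expressed fusions sorted by FACS into six bins by GFP to DsRed ratio, PSI derived from sequencing read proportions per bin multiplied by bin number.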

Variant	protein stability index
TVHEVDIFRCFCPVFLHSQMLWIL [E23I]	3.36
TVHEVDIFRCFCPVFLHSQMLWRL [E23R]	1.77
TVHEVDIFRCFCPVFLHSQMLWLL [E23L]	3.65
TVHEVDIFRCRCPVFLHSQMLWEL [F11R]	1.38
TVHEVDIFRCQCPVFLHSQMLWEL [F11Q]	1.64
TVHEVDIFRCCCPVFLHSQMLWEL [F11C]	2.65
TVHEVDIFRCKCPVFLHSQMLWEL [F11K]	2.82
TVHEVDIFRCGCPVFLHSQMLWEL [F11G]	2.22
TVHEVDIFRCNCPVFLHSQMLWEL [F11N]	2.04
TVHEVDIFRCHCPVFLHSQMLWEL [F11H]	2.82
TVHEVDIFRCFCPVFEHSQMLWEL [L16E]	1.69
TVHEVDIFRCFCPVFPHSQMLWEL [L16P]	2.89
TVHEVDIFRCFCPVFRHSQMLWEL [L16R]	3.17
TVHEVDIFRCFCPVFNHSQMLWEL [L16N]	3.13
TVHEVDIFRCFCPVFGHSQMLWEL [L16G]	2.97
TVHEVDIFRCFCPVFCHSQMLWEL [L16C]	3.78

Variants of: B2
Assay: as above
Settings: c terminus: a fixed tail appended

Variant	protein stability index
FPNRTDQQCQYRWDRVLNPDLVKG [L14D]	2.22
FPNRSDQQCQYRWLRVLNPDLVKG [T5S]	1.86
FPNRHDQQCQYRWLRVLNPDLVKG [T5H]	1.74
FPNRPDQQCQYRWLRVLNPDLVKG [T5P]	2.05
FPNREDQQCQYRWLRVLNPDLVKG [T5E]	2.29
FPNRVDQQCQYRWLRVLNPDLVKG [T5V]	1.8
FPNRTDQMCQYRWLRVLNPDLVKG [Q8M]	1.83
FPNRTDQHCQYRWLRVLNPDLVKG [Q8H]	2.37
FPNRTDQSCQYRWLRVLNPDLVKG [Q8S]	1.83
FPNRTDQACQYRWLRVLNPDLVKG [Q8A]	1.38
FPNRTDQYCQYRWLRVLNPDLVKG [Q8Y]	1.88
FPNRTDQQCQYRWLYVLNPDLVKG [R15Y]	2.14
FPNRTDQQCQYYWLRVLNPDLVKG [R12Y]	2.46
FPNRTDQQCQYIWLRVLNPDLVKG [R12I]	1.97
FPNRTDQQCQYTWLRVLNPDLVKG [R12T]	1.66
FPNRTDQQCQYRWLRVQNPDLVKG [L17Q]	2.45
FPNRTDQQCQYRWLRVINPDLVKG [L17I]	2.01
FPNRTDQQCQYRWLRVENPDLVKG [L17E]	2.32
FPNRTDQQCQYRWLRVSNPDLVKG [L17S]	2.78
FPNRTDQQCQYRFLRVLNPDLVKG [W13F]	2.75
FPNRTDQQCQYRNLRVLNPDLVKG [W13N]	2.81
FPNRTDQQCQYRQLRVLNPDLVKG [W13Q]	3.1
FPNRTDQQCQYRCLRVLNPDLVKG [W13C]	2.01
FPNRTQQQCQYRWLRVLNPDLVKG [D6Q]	2.91
FPNRTAQQCQYRWLRVLNPDLVKG [D6A]	1.7
FPNRTPQQCQYRWLRVLNPDLVKG [D6P]	1.81

Variant	protein stability index
FPNRTDQQCQYRWLRVLNPDLVTG [K23T]	1.59
FPNRTDQQCQYRWLRVLNPDLVFG [K23F]	2.47
FPNRTDQQCQYRWLRVLNPDLVVG [K23V]	1.4
FPNKTDQQCQYRWLRVLNPDLVKG [R4K]	2.11
DPNRTDQQCQYRWLRVLNPDLVKG [F1D]	3.24
APNRTDQQCQYRWLRVLNPDLVKG [F1A]	2.54
EPNRTDQQCQYRWLRVLNPDLVKG [F1E]	2.56
WPNRTDQQCQYRWLRVLNPDLVKG [F1W]	2
FPNRTDQQCQYRWLRVLNPDQVKG [L21Q]	2.08
FPNRTDQQCQYRWLRVLNPDFVKG [L21F]	2.26
FPNRTDQQCQYRWLRVLNPDSVKG [L21S]	2.17
FPNRTDQQCQYRWLRVLNPDLDKG [V22D]	2.02
FPNRTDQQCQYRWLRVLNPDLRKG [V22R]	1.66
FPNRTDQQCQYRWLRVLNPDLKKG [V22K]	1.64
FPNRTDQQCQYRWLRVLNPDLTKG [V22T]	1.95
FPNRTDQQCMYRWLRVLNPDLVKG [Q10M]	1.47
FPNRTDQQCCYRWLRVLNPDLVKG [Q10C]	2.83
FPNRTDQQCNYRWLRVLNPDLVKG [Q10N]	1.76
FPPRTDQQCQYRWLRVLNPDLVKG [N3P]	1.93
FPMRTDQQCQYRWLRVLNPDLVKG [N3M]	1.72
FPTRTDQQCQYRWLRVLNPDLVKG [N3T]	1.91
FPFRTDQQCQYRWLRVLNPDLVKG [N3F]	1.63
FPVRTDQQCQYRWLRVLNPDLVKG [N3V]	1.91
FPCRTDQQCQYRWLRVLNPDLVKG [N3C]	1.56
FPNRTDQQCQYRWLRVLNPDLVKQ [G24Q]	1.91
FPNRTDQQCQYRWLRVLNPDLVKP [G24P]	2.26

Variant	protein stability index
FPNRTDQQCQYRWLRVLNPDLVKM [G24M]	2.18
FPNRTDQQCQYRWLRVLNPDLVKL [G24L]	2.35
FPNRTDQQCQPRWLRVLNPDLVKG [Y11P]	2.13
FPNRTDQQCQRRWLRVLNPDLVKG [Y11R]	1.97
FPNRTDQQCQARWLRVLNPDLVKG [Y11A]	2.16
FPNRTDQQCQFRWLRVLNPDLVKG [Y11F]	1.95
FPNRTDQQCQQRWLRVLNPDLVKG [Y11Q]	1.85
FPNRTDQQCQYRWLRVLNPTLVKG [D20T]	1.54
FPNRTDQQCQYRWLRVLNPLLVKG [D20L]	1.7
FPNRTDQQCQYRWLRVLNPELVKG [D20E]	2.03
FPNRTDQQCQYRWLRVLNPHLVKG [D20H]	2.06
FPNRTDAQCQYRWLRVLNPDLVKG [Q7A]	2.53
FPNRTDRQCQYRWLRVLNPDLVKG [Q7R]	2.63
FPNRTDQQKQYRWLRVLNPDLVKG [C9K]	2.76
FPNRTDQQCQYRWLRVLIPDLVKG [N18I]	1.09
FPNRTDQQCQYRWLRVLMPDLVKG [N18M]	1.75
FPNRTDQQCQYRWLRVLQPDLVKG [N18Q]	1.97
FPNRTDQQCQYRWLRVLYPDLVKG [N18Y]	2.16
FINRTDQQCQYRWLRVLNPDLVKG [P2I]	1.13
FTNRTDQQCQYRWLRVLNPDLVKG [P2T]	1.81
FPNRTDQQCQYRWLRGLNPDLVKG [V16G]	2.12
FPNRTDQQCQYRWLRSLNPDLVKG [V16S]	2.2
FPNRTDQQCQYRWLRYLNPDLVKG [V16Y]	1.72
FPNRTDQQCQYRWLRVLNCDLVKG [P19C]	2.5
FPNRTDQQCQYRWLRVLNVDLVKG [P19V]	1.94
FPNRTDQQCQYRWLRVLNIDLVKG [P19I]	2.11
